Each block holds one substance with its values, some of them ahead of it.
Experiments:
[1] = target: EGF456 (TM456) component of the thrombin-thrombomodulin fusion proteins (human) (UniProt P07204)
[2] = target: Full-length rabbit thrombomodulin (TM) (rabbit)
[3] = target: fragment TM456 of human thrombomodulin (soluble EGF456 domains) (human) (UniProt P07204)
[4] = target: fragment TM456 of human thrombomodulin (soluble EGF456 domains) (human) (UniProt P07204); experiment: SPR; biotinyl-TM456 on a neutravidin-coated CM5 chip (177 RU); thrombin injected at 30 μl/min, contact and dissociation 120 sec; 25 °C; Biacore-S200; TM456 loaded in 10 mM HEPES pH 7.4, 150 mM NaCl, 2.5 mM Ca2+, 0.05% Tween20; Kd from response units at the steady state

- kcat/KM of protein C activation by FP31WE (thrombin WE fused to EGF456, 31-residue linker) [1]: 550 M⁻¹ s⁻¹
Substance: thrombin W215A/E217A (WE) component of the fusion protein FP31WE (domain or fragment)

- kcat/KM of cleavage of the PAR1 fragment by FP7 (thrombin fused to TM456, 7-residue linker) [1]: 5.8e+06 M⁻¹ s⁻¹
- kcat/KM of cleavage of the PAR1 fragment by FP17 (thrombin fused to TM456, 17-residue linker) [1]: 2e+06 M⁻¹ s⁻¹
- kcat/KM of cleavage of the PAR1 fragment by FP31 (thrombin fused to TM456, 31-residue linker) [1]: 300000 M⁻¹ s⁻¹
- kcat/KM of cleavage of the PAR1 fragment by FP41 (thrombin fused to TM456, 41-residue linker) [1]: 950000 M⁻¹ s⁻¹
- kcat/KM of cleavage of the PAR1 fragment by FP55 (thrombin fused to TM456, 55-residue linker) [1]: 2.3e+06 M⁻¹ s⁻¹
- kcat/KM of cleavage of the PAR1 fragment by FP69 (thrombin fused to TM456, 69-residue linker) [1]: 1.4e+07 M⁻¹ s⁻¹
- kcat/KM of fibrinopeptide A release by FP7 (thrombin fused to TM456, 7-residue linker) [1]: 6.7e+06 M⁻¹ s⁻¹
- kcat/KM of fibrinopeptide A release by FP17 (thrombin fused to TM456, 17-residue linker) [1]: 1.55e+06 M⁻¹ s⁻¹
- kcat/KM of fibrinopeptide A release by FP31 (thrombin fused to TM456, 31-residue linker) [1]: 300000 M⁻¹ s⁻¹
- kcat/KM of fibrinopeptide A release by FP41 (thrombin fused to TM456, 41-residue linker) [1]: 600000 M⁻¹ s⁻¹
- kcat/KM of fibrinopeptide A release by FP55 (thrombin fused to TM456, 55-residue linker) [1]: 1.3e+06 M⁻¹ s⁻¹
- kcat/KM of fibrinopeptide A release by FP69 (thrombin fused to TM456, 69-residue linker) [1]: 1.1e+07 M⁻¹ s⁻¹
- kcat/KM of protein C activation by FP7 (thrombin fused to TM456, 7-residue linker) [1]: 1100 M⁻¹ s⁻¹
- kcat/KM of protein C activation by FP17 (thrombin fused to TM456, 17-residue linker) [1]: 6100 M⁻¹ s⁻¹
- kcat/KM of protein C activation by FP31 (thrombin fused to TM456, 31-residue linker) [1]: 85000 M⁻¹ s⁻¹
- kcat/KM of protein C activation by FP41 (thrombin fused to TM456, 41-residue linker) [1]: 107000 M⁻¹ s⁻¹
- kcat/KM of protein C activation by FP55 (thrombin fused to TM456, 55-residue linker) [1]: 120000 M⁻¹ s⁻¹
- kcat/KM of protein C activation by FP69 (thrombin fused to TM456, 69-residue linker) [1]: 74000 M⁻¹ s⁻¹
- kcat/KM of protein C activation by thrombin with TM [2]: 230000 M⁻¹ s⁻¹
- kcat/KM of protein C activation by thrombin with 500 nM TM456 [3]: 80000 M⁻¹ s⁻¹
- Kd [4]: 18 nM
Substance: thrombin wild-type (enzyme)

- kcat/KM of protein C activation by thrombin WE with 500 nM TM456 [3]: 380 M⁻¹ s⁻¹
- Kd [4]: 31 nM
Substance: thrombin double mutant W215A/E217A (WE) (enzyme)

- kcat/KM of protein C activation by FP31W215A (thrombin W215A fused to EGF456, 31-residue linker) [1]: 3300 M⁻¹ s⁻¹
- kcat/KM of protein C activation by thrombin W215A with 500 nM TM456 [3]: 3200 M⁻¹ s⁻¹
- Kd [4]: 23 nM
Substance: thrombin mutant W215A (enzyme)

— article PMC5353707
